Usually Kd stands for a measure of binding affinity in units of concentration. Low values mean a tighter complex, high ones a looser complex.

B1: 纳米抗体VHH-CA125-4H10 (VHH)
VHH: ESGGGLVQPGGSLRLSCAASEFTLEHYAIGWFRQAPGKEREGVGCISSSQENTYVEDSAKGRFTISRDNVKNTVYLQMNSLKPEDTAVYYCAARRFGLCVISPGYFEVWGQGT
notes: Alpaca VHH expressed from pMES4 in E. coli BL21(DE3) periplasm; not shown: residues and tag from the pMES4 vector (protein purified on Ni-NTA / IMAC)
B2: 纳米抗体VHH-CA125-4C1 (VHH)
VHH: ESGGGLVQAGGSLRLSCAASGNTFNINAMGWYRQAPGKQRELVATITSGGSTNYADSVKGRFTISRDNAKNTVFLQMNSLKPEDTAVYYCNAVQTRLPNSPDRYEYDYWGQGT
notes: as for B1
B3: 纳米抗体VHH-CA125-2H7 (VHH)
VHH: ESGGGLVQAGGSLRLSCERSDAPHSPYTMGWFRQAPGKDREFVATITWSGGTTLYADSVKGRFTISRGIAKNTAYLQMNTLKPEDTAVYYCAVGLGGGAYREDHQYDYWGQGT
notes: as for B1

The assay addresses T1, CA125抗原 (purified from ascites of ovarian cancer patients) (human (ascites of ovarian cancer …, UniProt Q8WXI7 1-14451)).
T1 construct: Natural shed antigen, heterogeneous fragments; also called CA125糖类抗原
Briefly: SPR, Biacore T100, 1:1 binding fit. In general terms: In SPR one partner is held on a chip, and binding of the other changes the refractive index at the surface.
In turn, B1 had a Kd of 0.285 nM.
The result for B2 reads 0.635 nM; that for B3, 0.718 nM.

Values taken from patent CN108178799A (SHENZHEN INNOVA NANOBODI CO LTD, dated 2018).
